First the molecules themselves.
B1: Protein sprouty homolog 2 (Homo sapiens), O43597 (parent)
chain: MEARAQSGNGSQPLLQTPRDGGRQRGEPDPRDALTQQVHVLSLDQIRAIRNTNEYTEGPTVVPRPGLKPAPRPSTQHKHERLHGLPEHRQPPRLQHSQVHSSARAPLSRSISTVSSGSRSSTRTSTSSSSSEQRLLGSSFSSGPVADGIIRVQPKSELKPGELKPLSKEDLGLHAYRCEDCGKCKCKECTYPRPLPSDWICDKQCLCSAQNVIDYGTCVCCVKGLFYHCSNDDEDNCADNPCSCSQSHCCTRWSAMGVMSLFLPCLWCYLPAKGCLKLCQGCYDRVNRPGCRCKNSNTVCCKVPTVPPRNFEKPT
B2: Protein sprouty homolog 1 (Homo sapiens), O43609 (parent)
chain: MDPQNQHGSGSSLVVIQQPSLDSRQRLDYEREIQPTAILSLDQIKAIRGSNEYTEGPSVVKRPAPRTAPRQEKHERTHEIIPINVNNNYEHRHTSHLGHAVLPSNARGPILSRSTSTGSAASSGSNSSASSEQGLLGRSPPTRPVPGHRSERAIRTQPKQLIVDDLKGSLKEDLTQHKFICEQCGKCKCGECTAPRTLPSCLACNRQCLCSAESMVEYGTCMCLVKGIFYHCSNDDEGDSYSDNPCSCSQSHCCSRYLCMGAMSLFLPCLLCYPPAKGCLKLCRRCYDWIHRPGCRCKNSNTVYCKLESCPSRGQGKPS

In assay [1] the parent is B1. The note with it: with cbl_human CBL.
The variants in assay [2] derive from B1. The note with it: with grb2_human GRB2, P62993.
Target sequence in this assay (P62993 whole entry, looked up): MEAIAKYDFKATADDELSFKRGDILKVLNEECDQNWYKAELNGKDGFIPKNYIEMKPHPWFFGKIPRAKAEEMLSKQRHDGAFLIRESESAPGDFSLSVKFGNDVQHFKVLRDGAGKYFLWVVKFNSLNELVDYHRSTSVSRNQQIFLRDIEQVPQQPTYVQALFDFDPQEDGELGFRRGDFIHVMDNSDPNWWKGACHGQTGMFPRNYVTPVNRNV
Assay [3] covers variants of B2. Conditions: with cbl_human CBL. This is another data set of the same source.
Assay [4] covers variants of B2. The note with it: with grb2_human GRB2, P62993. The source holds these as a separate data set.
Target sequence in this assay (P62993 whole entry, looked up): as above

Consider Y55F, for which the figures for the “effect of a mutation on the interaction” value in assay [1] and in assay [2] were “disrupting interaction” and “decreasing interaction”, respectively.
In the case of Y53F, the figures for the “effect of a mutation on the interaction” value in assay [3] and in assay [4] were “disrupting interaction” and “decreasing interaction”, respectively.
